Data published in patent publication US20230101046A1, “[…] LYMPHOMA KINASE […] ANTIGEN RECEPTORS AND METHODS OF USE” (The Children's Medical Center Corporation, published 2023).
Numbering of substitutions follows the chain as printed. Blank lines part the entries; values can stand above or below the binder they belong to.

Molecular target: human ALK receptor (human)
Assay: apparent KD (KD^app), method not stated

Sequence of human ALK receptor (human) (chain, as listed by the source): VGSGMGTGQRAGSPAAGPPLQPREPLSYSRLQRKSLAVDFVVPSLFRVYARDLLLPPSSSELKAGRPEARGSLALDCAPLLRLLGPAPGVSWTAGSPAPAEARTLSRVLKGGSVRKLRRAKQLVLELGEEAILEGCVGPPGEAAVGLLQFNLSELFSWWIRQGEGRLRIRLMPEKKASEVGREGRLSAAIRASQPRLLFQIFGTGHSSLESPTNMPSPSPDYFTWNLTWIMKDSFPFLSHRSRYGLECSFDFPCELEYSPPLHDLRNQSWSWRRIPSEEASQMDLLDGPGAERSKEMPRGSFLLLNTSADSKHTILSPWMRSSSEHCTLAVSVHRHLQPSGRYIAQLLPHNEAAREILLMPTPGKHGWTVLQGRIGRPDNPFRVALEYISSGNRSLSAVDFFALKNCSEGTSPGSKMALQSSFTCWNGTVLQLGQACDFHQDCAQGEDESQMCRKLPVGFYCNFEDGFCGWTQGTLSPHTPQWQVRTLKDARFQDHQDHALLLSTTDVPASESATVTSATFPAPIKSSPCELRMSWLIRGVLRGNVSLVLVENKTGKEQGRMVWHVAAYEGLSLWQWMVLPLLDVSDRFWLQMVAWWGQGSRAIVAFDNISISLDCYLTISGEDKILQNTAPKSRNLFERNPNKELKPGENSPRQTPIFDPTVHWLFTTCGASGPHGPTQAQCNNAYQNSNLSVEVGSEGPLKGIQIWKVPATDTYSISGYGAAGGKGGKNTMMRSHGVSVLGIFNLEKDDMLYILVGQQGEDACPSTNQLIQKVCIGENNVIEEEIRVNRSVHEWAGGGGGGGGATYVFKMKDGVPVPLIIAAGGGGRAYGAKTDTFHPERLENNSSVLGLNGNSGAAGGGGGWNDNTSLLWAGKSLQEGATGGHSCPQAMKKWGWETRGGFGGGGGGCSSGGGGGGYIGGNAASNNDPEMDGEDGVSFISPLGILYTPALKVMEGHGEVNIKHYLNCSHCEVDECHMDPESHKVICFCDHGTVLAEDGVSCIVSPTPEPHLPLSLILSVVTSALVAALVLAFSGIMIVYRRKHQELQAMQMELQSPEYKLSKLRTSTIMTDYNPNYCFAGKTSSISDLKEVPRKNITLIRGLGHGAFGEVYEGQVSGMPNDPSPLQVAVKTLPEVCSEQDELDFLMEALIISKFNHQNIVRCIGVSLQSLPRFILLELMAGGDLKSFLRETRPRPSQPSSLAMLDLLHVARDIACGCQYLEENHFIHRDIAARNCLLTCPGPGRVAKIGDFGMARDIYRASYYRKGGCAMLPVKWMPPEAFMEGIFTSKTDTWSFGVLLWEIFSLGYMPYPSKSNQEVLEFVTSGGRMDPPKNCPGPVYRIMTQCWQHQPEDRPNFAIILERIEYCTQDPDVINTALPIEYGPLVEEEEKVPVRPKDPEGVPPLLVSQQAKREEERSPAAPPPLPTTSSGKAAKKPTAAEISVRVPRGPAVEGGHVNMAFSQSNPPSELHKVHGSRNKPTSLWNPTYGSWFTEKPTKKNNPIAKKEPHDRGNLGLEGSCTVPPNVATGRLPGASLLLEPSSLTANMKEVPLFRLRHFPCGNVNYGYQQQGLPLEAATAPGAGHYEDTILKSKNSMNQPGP

- Kd: 0.5 nM
B4: ALK Antibody #5 (antibody, V domains shown)
VH: QVQLQQSGAELAKPGASVKLSCKASGYTFTSYWMHWVKQRPGQGLEWIGYIKPSSGYTKYNQKFKDKATLTADKSSSTAYMQLSSLTYEDSAVYYCARDYYGSSSWFAYWGQGTLVTVSA
VL: DIVMTQSQRFMSTSVGDRVSVTCKASQNVGTNVAWYQQKPGQSPKALIYSASYRYSGVPDRFTGSGSGTDFTLTISNVQSEDLAEYFCQQYNSYPYMYTFGGGTKLEIKR

- Kd: 0.5 nM
B5: ALK Antibody #7 (antibody, V domains shown)
VH: B4 VH with K52N, Y88F
VL: B4 VL with R9K, Q42H, Q90R, Y98F

- Kd: 0.35 nM
B6: ALK Antibody #1 (antibody, V domains shown)
VH: QVQLQQSGAELVKPGASVKISCKASGYAFSSYWMNWVKQRPGKGLEWIGQIYPGDGDTNYNGKFKGKATLTADKSSSTAYMQLSSLTSEDSAVYFCASYYYGSKAYWGQGTLVTVSA
VL: DIQMTQSPASLAASVGETVTITCRASENIYYSLAWYQQKQGKSPQLLIYNANSLEDGVPSRFSGSGSGTQYSMKINSMQPEDTATYFCKQAYDVPFTFGSGTKLEIKR

Further lines, the binder ahead of its results:

B1: ALK Antibody #6 (antibody, V domains shown)
VH: DVKLVESGEGLVKPGGSLKLSCAASGFTFSSYAMSWVRQTPEKRLEWVTYISSGGDYIYYADTVKGRFTISRDNARNTLYLQMSSLKSEDTAMYYCTRERIWLRRFFDVWGTGTTVTVSS
VL: DIVMTQSQKFMSTSVGDRVSITCKASQNVGTAVAWYQLKPGQSPKLLIYSASNRFTGVPDRFTGSGSGTDFTLTISNMQSEDLADYFCQQYSSYPLTFGSGTKLEIKR
- Kd: 0.4 nM

B2: ALK Antibody #4 (antibody, V domains shown)
VH: QVQLQQSGAELVKPGASVKISCKASGYAFSSYWVNWVKQRPGKGLEWIGQIYPGDGDTNYNGKFKGKATLTADKSSSTAYMQLSSLTSEDSAVYFCARSRGYFYGSTYDSWGQGTTLTVSS
VL: not shown
- Kd: 0.5 nM

B3: ALK Antibody #3 (antibody, V domains shown)
VH: B4 VH with S31N, K52N
VL: B4 VL with I75V
- Kd: 0.5 nM
